The target of data set [1] is calsequestrin 2 (CSQ2, CASQ2) 19-399 (UniProt O14958). Nature of the data set: Ca2+-dependent turbidity, absorbance at 350 nm. To be noted: reference: CSQ2 treated in tandem without Fam20C; sites S385.
Data set [2] deals with the molecule itself. Nature of the data set: turbidity assay; 4.5 uM phosphorylated or unphosphorylated His-CASQ2, 10 mM Tris-HCl pH 7.0, 10% glycerol, CaCl2 at the concentrations indicated; 30 min at room temperature; absorbance at 350 nm.

As for “calsequestrin 2 (CSQ2, CASQ2) 19-399 (from UniProt O14958) CSQ2 phosphorylated in vitro by Fam20C”, in data set [1], the “binding against the reference” value is reported as “stronger”.

B1: calsequestrin 2 (CSQ2), phosphorylated in vitro by Fam20C, His-tagged (natural protein, human, UniProt O14958 19-399, looked up)
chain: AEEGLNFPTYDGKDRVVSLSEKNFKQVLKKYDLLCLYYHEPVSSDKVTQKQFQLKEIVLELVAQVLEHKAIGFVMVDAKKEAKLAKKLGFDEEGSLYILKGDRTIEFDGEFAADVLVEFLLDLIEDPVEIISSKLEVQAFERIEDYIKLIGFFKSEDSEYYKAFEEAAEHFQPYIKFFATFDKGVAKKLSLKMNEVDFYEPFMDEPIAIPNKPYTEEELVEFVKEHQRPTLRRLRPEEMFETWEDDLNGIHIVAFAEKSDPDGYEFLEILKQVARDNTDNPDLSILWIDPDDFPLLVAYWEKTFKIDLFRPQIGVVNVTDADSVWMEIPDDDDLPTAEELEDWIEDVLSGKINTEDDDEDDDDDDNSDEEDNDDSDDDDDE
modifications: phosphoserine at 385 (phosphorylated in vitro by Fam20C; saturated phosphorylation >95%)
notes: also called phosphorylated CSQ2; phosphorylated His-CASQ2; source: E. coli BL21 (DE3)-RILP, purified (Ni-NTA), phosphorylated in vitro by Fam20C, then size exclusion chromatography; not shown: His6, C-terminal, kept
As to B1, the binding result in data set [2] is “binds”.

B2: calsequestrin 2 (CSQ2), unphosphorylated, His-tagged (natural protein, human, UniProt O14958 19-399, looked up)
chain: B1 chain
notes: Control sample of the turbidity assay: same treatment as the phosphorylated protein but without Fam20C; also called CASQ2; His-CASQ2; source: E. coli BL21 (DE3)-RILP, purified (Ni-NTA, size exclusion chromatography); treated in tandem without Fam20C; not shown: His6, C-terminal, kept
Take B2: in data set [2], the binding result is on record as “binds”.

The record behind these values is article PMC6298778, “A secretory pathway kinase regulates sarcoplasmic reticulum Ca^2+ homeostasis and protects against heart failure” (eLife, 2018).
